The text below walks through data of patent publication CN116333117A (LAITEKANG SUZHOU BIOPHARMACEUTICAL CO LTD, dated 2023).

One assay deals with T1, HER4 (human, UniProt Q15303 26-649, limits assumed).
T1 construct: also called ErbB4
T1 sequence (looked up): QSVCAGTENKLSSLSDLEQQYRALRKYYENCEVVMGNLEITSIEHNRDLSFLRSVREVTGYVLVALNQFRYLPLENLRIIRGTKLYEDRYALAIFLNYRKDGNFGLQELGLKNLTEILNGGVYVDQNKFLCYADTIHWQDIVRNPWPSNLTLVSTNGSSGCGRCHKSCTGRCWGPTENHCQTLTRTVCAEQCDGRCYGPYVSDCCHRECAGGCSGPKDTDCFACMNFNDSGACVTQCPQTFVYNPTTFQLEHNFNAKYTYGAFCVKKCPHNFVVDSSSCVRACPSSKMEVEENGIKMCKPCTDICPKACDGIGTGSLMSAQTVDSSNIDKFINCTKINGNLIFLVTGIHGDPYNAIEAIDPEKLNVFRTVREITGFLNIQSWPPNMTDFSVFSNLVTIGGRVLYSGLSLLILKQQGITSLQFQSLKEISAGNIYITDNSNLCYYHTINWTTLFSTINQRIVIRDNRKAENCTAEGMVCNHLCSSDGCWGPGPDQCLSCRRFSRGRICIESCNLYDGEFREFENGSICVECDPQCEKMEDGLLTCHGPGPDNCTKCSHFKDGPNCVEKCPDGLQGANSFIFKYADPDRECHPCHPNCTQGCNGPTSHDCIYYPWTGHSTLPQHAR
Description: ELISA, coated HER4, antibody in 3-fold dilutions.

Assay [1] deals with T2, hEGFR/ECD-his (自制的C-末端具有his标签的人EGFR胞外域蛋白全长) (human, UniProt P00533 25-645).
T2 construct: extracellular domain; Home-made antigen; also called hEGFR/EDC-his; hEGFR/EGFR-his; not shown: C-terminal his tag
Description: ELISA, coated hEGFR/ECD-his 1 ug/mL, anti-hIgG Fc-HRP. In general terms: ELISA stands for enzyme-linked immunosorbent assay.

The target of the next assay is T3, HER2 (human, UniProt P04626 23-652, limits assumed).
T3 construct: also called ErbB2
Description: ELISA, coated HER2, antibody in 3-fold dilutions.

For a further assay, the target named is T4, HER3 (human, UniProt P21860 20-643, limits assumed).
T4 construct: also called ErbB3
T4 sequence (P21860 20-643 limits assumed): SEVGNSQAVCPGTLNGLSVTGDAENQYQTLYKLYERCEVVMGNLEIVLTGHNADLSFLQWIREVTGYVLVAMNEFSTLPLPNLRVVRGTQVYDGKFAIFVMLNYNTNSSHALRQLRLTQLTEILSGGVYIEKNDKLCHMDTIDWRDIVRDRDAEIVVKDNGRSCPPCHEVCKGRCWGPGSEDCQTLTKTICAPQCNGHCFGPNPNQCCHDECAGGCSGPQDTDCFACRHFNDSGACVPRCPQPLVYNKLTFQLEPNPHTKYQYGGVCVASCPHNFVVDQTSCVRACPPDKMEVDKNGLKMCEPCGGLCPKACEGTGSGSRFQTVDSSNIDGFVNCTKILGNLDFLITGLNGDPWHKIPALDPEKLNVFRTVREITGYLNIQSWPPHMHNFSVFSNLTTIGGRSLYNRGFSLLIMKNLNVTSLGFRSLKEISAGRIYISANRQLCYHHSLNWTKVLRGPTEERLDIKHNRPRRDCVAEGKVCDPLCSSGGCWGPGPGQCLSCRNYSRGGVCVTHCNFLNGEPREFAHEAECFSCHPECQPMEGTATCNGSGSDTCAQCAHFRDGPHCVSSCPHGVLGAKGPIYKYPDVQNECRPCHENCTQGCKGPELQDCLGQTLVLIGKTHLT
Description: ELISA, coated HER3, antibody in 3-fold dilutions.

Assay [2] concerns the target T2, hEGFR/ECD-his …. Description: BLI (ForteBio Qke), antibody on Protein A probes, hEGFR in solution from 20 ug/mL in 1:2 dilutions. (In BLI a coated tip is dipped into the sample, and binding shifts an interference pattern.)

B1: mouse anibody1129 (mAb1129) (antibody, V domains shown)
VH: DVMLVESGGGLVKPGGSLKLSCAASGFAFSNYDMSWVRQTPEKRLEWVAYISSGGDITYYLDTVKGRFTISRDNAKNTLYLQMSSLKSEDTAMYYCARSHYGYYGDTMDYWGQGTSVTVSS
VL: DVVMTQTPLSLPVSLGDQASISCRSSQSLVHSNGNTYLHWYLQKPGQSPKLLIYKVSNRFSGVPDRFSGSGSGTDFTLKISRVEAEDLGVYFCSQSTHVPPTFGGGTKLEIK
notes: also called 抗EGFR抗体mAb1129; 小鼠抗EGFR抗体; not shown: human kappa light chain constant region
The term EC50 denotes the concentration needed to bring the measured effect to its halfway point. A lower EC50 goes with greater potency. A word on the Kd: it is the concentration at which binding is half-saturated. A low value points to higher affinity. On to B1, for which the binding result in the assay with HER4, in the assay with HER2 and with HER3 was “no binding (tested: 起始浓度为2μg/mL)” each time. For the same molecule, the half-maximal effective concentration (EC50) in assay [1] was ~0.0199 µg/mL. For the same molecule, in assay [2], the dissociation constant Kd was ~2.03 nM.
